Data set [1] concerns the target Nsp12T;Nsp7;Nsp8 (SARS-CoV-2;SARS-CoV-2;SARS-CoV-2, UniProt P0DTD1;P0DTD1;P0DTD1 4393-5324;3860-3942;3943-4140, ||). The data set can be described thus: EMSA.
Data set [2] concerns the target Nsp12A;Nsp7;Nsp8 (SARS-CoV-2;SARS-CoV-2;SARS-CoV-2, UniProt P0DTD1;P0DTD1;P0DTD1 4393-5324;3860-3942;3943-4140, ||). In words: EMSA; 2 mM Mg2+; 100 nM RNA.

B1: 4N RNA hairpin scaffold (structured_RNA)
RNA: UUUUCAUGCUACGCGUAGUUUUCUACGCG
For B1, the binding result in data set [1] and in data set [2] was “binds” in each case.

These data come from PMC8262916.
